Patent publication US20070207967A1, “Peptide Inhibitors of Matrix Metalloproteinase Activity” (CTT CANCER TARGETING TECHNOLOGIES OY, priority 2004, published 2007)

Key:
THP-1 cells [1] = assay: THP-1 cell binding to immobilized KIM127 antibody; assay type: cell-based, human
Protocol: (§1) Cell adhesion. HT1080 cells were allowed to adhere on vitronectin or fibronectin (2 μg/ml) in the presence or absence of peptides (200 μM), proteins (40 μg/ml) or a monoclonal anti-αvβ5 integrin antibody P1F6 (Chemicon) or a control antibody (25 μg/ml). The adhesion was quantified as described (14). Adhesion of THP-1 cells to immobilized KIM127 or control monoclonal antibodies (2 μg/ml) was done in the presence or absence of soluble proteins (50 μg/ml) or antibodies (25 μg/ml).

HT1080 fibrosarcoma = assay: HT1080 invasion through matrigel; assay type: cell-based, human; conditions: 50 μg/ml
Protocol: Cell migration and invasion. The cell migration assay was conducted using transwell migration chambers (8 μm pore size, Costar) in 10% serum-containing medium (2,14). Briefly, the membranes were coated on both sides with 40 μg/ml GST or with the β2 integrin ligand peptide […]-GST fusion (GST-LLG-C4) and blocked with complete medium. THP-1 cells (50 000/100 μl) were preincubated with the peptides for 1 h in serum-containing medium. The cells were allowed to migrate for 16 h and were then stained with crystal violet and counted (14). The HT1080 (20 000 cells/I100 μl) invasion assay was performed as the THP-1 migration, except that matrigel coated transwells (BD Biosciences) were used.

MMP-9 C domain = target: T1, MMP-9 C domain (Homo sapiens, UniProt P14780); assay: β5 I-EGF2+3 binding assay, MMP-9 C domain
T1 construct: MMP-9 (Asp^494-Asp^688) were expressed as described (16); made in house; host or cells: E. coli (β5 fragment)
T1 sequence (P14780 513-707 limits assumed): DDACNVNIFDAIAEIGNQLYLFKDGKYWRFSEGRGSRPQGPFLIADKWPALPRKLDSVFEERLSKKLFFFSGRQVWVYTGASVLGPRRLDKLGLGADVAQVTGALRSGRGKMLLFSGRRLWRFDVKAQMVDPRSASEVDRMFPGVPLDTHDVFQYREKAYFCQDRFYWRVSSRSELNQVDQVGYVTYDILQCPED
Protocol: (§2) B5 I-EGF2+3 binding assay. MMP-9 C domain, MMP-2 C domain, CBD, β5 I-EGF2+3 or vitronectin (2 μg/ml) were immobilized in microtiter wells. Biotinylated β5 I-EGF2+3 fragment (2.5 μg/ml) was added to the wells which were preincubated with the competitors for 30 min in 1% BSA-PBST and then incubated further for one hour. Bound biotinylated protein was detected with streptavidin-peroxidase.

[2] = system: MMP-9 CBD, vitronectin, β5 I-EGF2+3, C domain of MMP-2; assay: β5 I-EGF2+3 binding assay, other immobilized proteins
Protocol: as §2

[3] = system: β5 integrin-transfected CS-1 melanoma cells; assay: 125I-C domain binding to cells; assay type: cell-based, hamster; conditions: for Competition of 125I-labelled MMP-9 C domain binding to β5 integrin-transfected CS-1 cells: unlabelled proteins 50 μg/ml, peptides 50 μM
Protocol: ^125I-C domain binding to cells. The MMP-9 C domain was labelled with ^125I to a specific activity 0.06 μCi/pmol. The labelled domain retained 40% of the CRV peptide-binding activity as shown by the phage-binding assay. […] After a preincubation of 1.5×10^6 cells in a 200 μl volume on ice for 30 min with the competitors, ^125I-labelled C domain (1×10^6 cpm) was added and incubated for three hours on ice. The cells were transferred to tubes containing 200 μl of dibutyl phthalate/cyclohexane mixture (23:2 vol/vol), centrifuged 7500×g for 10 minutes and snap-frozen (24). The bottom of the tube containing the cells were cut and analyzed with a gamma-counter.

HT1080 cells = assay: HT1080 cell adhesion to vitronectin or fibronectin; assay type: cell-based, human; conditions: proteins 40 μg/ml, CRV peptide 200 μM
Protocol: as §1

THP-1 cells [4] = assay: THP-1 cell binding to antibody R3F9C; assay type: cell-based, human; conditions: not shown
Protocol: as §1

| Molecule | Inhibition of HT1080 invasion through matrigel by integrin and MMP domains (HT1080 fibrosarcoma) | Competition of 125I-labelled MMP-9 C domain binding to β5 integrin-transfected CS-1 cells [3] | Inhibition of HT1080 cell adhesion to vitronectin or fibronectin (HT1080 cells) | further results |
| --- | --- | --- | --- | --- |
| CBD: recombinant collagen binding domain of MMP-9 (Gly204-Gly373) (protein) GNADGAACHFPFIFEGRSYSACTTDGRSDGLPWCSTTANYDTDDRFGFCPSERLYTQDGNADGKPCQFPFIFQGQSYSACTTDGRSDGYRWCATTANYDRDKLFGFCPTRADSTVMGGNSAGELCVFPFTFLGKEYSTCTSEGRGDGRLWCATTSNFDSDKKWGFCPDQG |  |  |  | Effect on THP-1 cell binding to immobilized KIM127 (THP-1 cells [1]; proteins 50 μg/ml, antibodies 25 μg/ml): did not |
| β5 I-EGF2+3: integrin β5 I-EGF2+3 fragment (Glu476-Asn563) with N-terminal His6-tag (protein, left off: small tags and cut ends, integrin β5 I-EGF2+3 fragment (Glu476-Asn563) with N-terminal His6-tag) ECQDGENQSVYQNLCREAEGKPLCSGRGDCSCNQCSCFESEFGKIYGPFCECDNFSCARNKGVLCSGHGECHCGECKCHAGYIGDNCN | inhibited HT1080 invasion with a similar potency | competed |  | Competition of biotinylated β5 I-EGF2+3 binding to the MMP-9 C domain (MMP-9 C domain): inhibited; Binding of biotinylated β5 I-EGF2+3 to the MMP-9 C domain (MMP-9 C domain; 2.5 μg/ml): specifically bound; Binding of β5 I-EGF2+3 to MMP-9 CBD, vitronectin, itself or the C domain of MMP-2 [2]: did not bind |
| pro-MMP-9-ΔHC: pro-MMP-9 lacking the hinge region and the C domain (protein) APRQRQSTLVLFPGDLRTNLTDRQLAEEYLYRYGYTRVAEMRGESKSLGPALLLLQKQLSLPETGELDSATLKAMRTPRCGVPDLGRFQTFEGDLKWHHHNITYWIQNYSEDLPRAVIDDAFARAFALWSAVTPLTFTRVYSRDADIVIQFGVAEHGDGYPFDGKDGLLAHAFPPGPGIQGDAHFDDDELWSLGKGVVVPTRFGNADGAACHFPFIFEGRSYSACTTDGRSDGLPWCSTTANYDTDDRFGFCPSERLYTQDGNADGKPCQFPFIFQGQSYSACTTDGRSDGYRWCATTANYDRDKLFGFCPTRADSTVMGGNSAGELCVFPFTFLGKEYSTCTSEGRGDGRLWCATTSNFDSDKKWGFCPDQGYSLFLVAAHEFGHALGLDHSSVPEALMYPMYRFTEGPPLHKDDVNGIRHLYG |  |  | Neither |  |
| MMP-9 C domain: recombinant C-terminal hemopexin-like domain of MMP-9 (Asp494-Asp688) (protein) DDACNVNIFDAIAEIGNQLYLFKDGKYWRFSEGRGSRPQGPFLIADKWPALPRKLDSVFEERLSKKLFFFSGRQVWVYTGASVLGPRRLDKLGLGADVAQVTGALRSGRGKMLLFSGRRLWRFDVKAQMVDPRSASEVDRMFPGVPLDTHDVFQYREKAYFCQDRFYWRVSSRSELNQVDQVGYVTYDILQCPED | inhibited HT1080 invasion with a similar potency | competed | Neither | Binding of 125Iodine-labelled MMP-9 C domain to β5 integrin-transfected CS-1 cells ([3]; not to the untransfected cells): specific binding; Inhibition of THP-1 cell binding to KIM127 (THP-1 cells [1]; 50 μg/ml): 40%; Effect on THP-1 binding to R3F9C (THP-1 cells [4]): no effect |
| MMP-2 C domain: recombinant C-terminal domain of MMP-2 (Glu438-Cys631) (protein) EICKQDIVFDGIAQIRGEIFFFKDRFIWRTVTPRDKPMGPLLVATFWPELPEKIDAVYEAPQEEKAVFFAGNEYWIYSASTLERGYPKPLTSLGLPPDVQRVDAAFNWSKNKKTYIFAGDKFWRYNEVKKKMDPGFPKLIADAWNAIPDNLDAVVDLQGGGHSYFFKGAYYLKLENQSLKSVKFGSIKSDWLGC | inhibited HT1080 invasion with a similar potency | No competition |  |  |
